In experiment [1] the target is T1, Human glypican-3, recombinant, construct not stated (human, UniProt P51654 25-559, limits assumed, biotin in the positional scanning (site not stated)).
T1 construct: also called recombinant GPC3; human GPC3
Nature of the experiment: ELISA, recombinant GPC3.

In experiment [2] the target is T2, Recombinant human glypican-3 (aa 1-559), His-tagged, R&D Systems (human, UniProt P51654 25-559).
T2 construct: also called huGPC3; Hu GPC3-His
Nature of the experiment: SPR, Biacore T100, GPC3-His immobilised, 1:1 fit. The protocol: (§1) The binding affinities of the alkylated GPC3 DG mutant adnectins for human and murine GPC3 were further evaluated by Biacore T100 using HBS-P+ running buffer with direct immobilization of human and mouse GPC3 proteins [Hu (Fc 2,3) and Mu (Fc 4) GPC3-His (R&D Systems)] with a 200-1.56 nM series injected for 180s association, 600s dissociation.
In general terms: SPR reads the build-up and loss of mass on a sensor chip optically.

In experiment [3] the target is T3, Recombinant murine glypican-3 (aa 25-557), R&D Systems (murine, UniProt Q8CFZ4 25-557).
T3 construct: also called muGPC3; Mu GPC3-His
T3 sequence (Q8CFZ4 25-557 limits assumed, form in doubt): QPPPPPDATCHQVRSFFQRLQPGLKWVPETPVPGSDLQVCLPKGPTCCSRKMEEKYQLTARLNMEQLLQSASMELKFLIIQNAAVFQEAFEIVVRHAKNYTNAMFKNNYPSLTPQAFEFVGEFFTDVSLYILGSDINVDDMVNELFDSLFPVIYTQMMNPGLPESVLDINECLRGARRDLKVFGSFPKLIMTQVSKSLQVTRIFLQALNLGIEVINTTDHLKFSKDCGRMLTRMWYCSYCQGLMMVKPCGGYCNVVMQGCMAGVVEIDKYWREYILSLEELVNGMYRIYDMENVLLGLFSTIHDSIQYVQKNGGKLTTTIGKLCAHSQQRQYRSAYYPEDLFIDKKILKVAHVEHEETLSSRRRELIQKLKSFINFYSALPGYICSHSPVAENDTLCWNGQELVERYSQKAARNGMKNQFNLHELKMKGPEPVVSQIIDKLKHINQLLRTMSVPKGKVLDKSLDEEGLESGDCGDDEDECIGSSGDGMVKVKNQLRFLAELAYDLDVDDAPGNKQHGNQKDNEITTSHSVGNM
Nature of the experiment: SPR, Biacore T100, GPC3-His immobilised, 1:1 fit. The procedure: as §1

The target of experiment [4] is T2, Recombinant human glypican-3 (aa …). Description: SPR 1-point off-rate, alkylated mutant vs parent.
Experiment [5] addresses T3, Recombinant murine glypican-3 (aa …). Description: SPR 1-point off-rate, alkylated mutant vs parent.
The target in experiment [6] is T2, Recombinant human glypican-3 (aa …). Description: SPR, as in the previous Examples. The protocol: (§2) For off-rate measurements, single 200 nM adnectin/AdxDC concentrations were injected using identical conditions. One 30s injection of 10 mM glycine pH 1.7 was used to remove bound adnectin and regenerate the GPC3 surfaces between assay cycles.
(§3) Rate constants kₐ (kₒₙ) and kd (koff) were derived from reference-subtracted sensorgrams fit to a 1:1 binding model in Biacore T100 Evaluation Software v2.0.4 (GE Healthcare). The affinity constant, KD was calculated from the ratio of rate constants kd/kₐ.
(§4) FITC Labeling: ADX_6077_F02 and non-binding control Adnectin were reduced with DTT or TCEP followed by G25 gel filtration chromatography or dialysis. Excess Fluorescein-5-maleimide reagent (Thermo Scientific) was then added and the mixture incubated at room temperature for approximately 2 hours followed by G25 gel filtration chromatography or extensive dialysis (3-4 buffer changes). The resulting degree of labeling was measured by absorbance following the manufacturer's instructions and/or by mass spectrometry. The binding affinities of FITC-labeled and PEGylated […] for human and murine GPC3 was evaluated as described in the previous Examples, and the results are summarized in Table 13.

Experiment [7] deals with T3, Recombinant murine glypican-3 (aa …). Description: SPR, as in the previous Examples. The procedure:
as §2, §3, §4

Several values for one entry are separate records, joined by “and”; a condition that tells them apart may be missing. Identical values can stand only once.

A word on the Kd: it is a measure of binding affinity in units of concentration. A word on the koff: it is the first-order rate constant of dissociation. As a reminder, the kon is the rate constant with which the complex forms.

T1 sequence (P51654 25-559 limits assumed): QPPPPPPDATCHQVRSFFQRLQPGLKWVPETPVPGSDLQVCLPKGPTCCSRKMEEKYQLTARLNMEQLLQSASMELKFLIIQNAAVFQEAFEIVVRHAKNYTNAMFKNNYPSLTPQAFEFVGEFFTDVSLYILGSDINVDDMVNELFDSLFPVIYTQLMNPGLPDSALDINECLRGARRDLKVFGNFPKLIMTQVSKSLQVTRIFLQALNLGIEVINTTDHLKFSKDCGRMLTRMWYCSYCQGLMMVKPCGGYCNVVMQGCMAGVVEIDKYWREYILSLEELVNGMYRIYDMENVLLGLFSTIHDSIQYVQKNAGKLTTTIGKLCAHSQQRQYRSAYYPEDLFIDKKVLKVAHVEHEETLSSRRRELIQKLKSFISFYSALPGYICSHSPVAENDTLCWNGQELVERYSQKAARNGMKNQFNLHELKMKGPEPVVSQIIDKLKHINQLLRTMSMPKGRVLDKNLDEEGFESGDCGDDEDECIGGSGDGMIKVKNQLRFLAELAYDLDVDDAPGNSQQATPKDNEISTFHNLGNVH
T2 sequence (P51654 other isoform, or with tags, fused parts or gaps): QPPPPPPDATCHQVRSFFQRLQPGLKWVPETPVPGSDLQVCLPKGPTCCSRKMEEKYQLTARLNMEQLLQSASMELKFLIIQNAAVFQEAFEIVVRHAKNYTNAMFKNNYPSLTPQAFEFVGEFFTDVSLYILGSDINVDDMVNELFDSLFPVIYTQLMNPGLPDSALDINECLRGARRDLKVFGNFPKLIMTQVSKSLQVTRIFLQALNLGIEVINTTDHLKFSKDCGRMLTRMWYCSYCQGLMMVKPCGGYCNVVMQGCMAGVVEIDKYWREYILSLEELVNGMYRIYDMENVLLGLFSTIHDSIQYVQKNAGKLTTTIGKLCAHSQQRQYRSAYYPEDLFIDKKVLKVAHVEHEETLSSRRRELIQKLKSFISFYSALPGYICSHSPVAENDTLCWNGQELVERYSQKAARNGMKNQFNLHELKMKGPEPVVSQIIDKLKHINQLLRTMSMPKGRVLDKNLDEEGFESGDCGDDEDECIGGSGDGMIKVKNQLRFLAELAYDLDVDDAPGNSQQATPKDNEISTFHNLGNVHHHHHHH

B1: ADX_4578_H08 (designed binder)
chain: MGVSDVPRDLEVVAATPTSLLISWSGYDYGDSYYRITYGETGGNSPVQEFTVPDGSNTATISGLKPGVDYTITVYAVEAYGKGYTRYTPISINYRTEIDKPSQ
Regarding B1, the “ELISA OD” value in experiment [1] amounted to 1.02 OD.

B2: ADX_5273_D01 (designed binder)
chain: MGVSDVPRDLEVVAATPTSLLISWEPSYKDDRYYRITYGETGGNSPVQEFTVPSFHQTATISGLKPGVDYTITVYAVTYEPDEYYFYYPISINYRTEIDKPSQ
Regarding B2, the “ELISA OD” value in experiment [1] turned out to be 2.1 OD.

B3: ADX_5273_C01 (designed binder)
chain: MGVSDVPRDLEVVAATPTSLLISWSDPYEEERYYRITYGETGGNSPVQEFTVPAFHTTATISGLKPGVDYTITVYAVTYKHKYAYYYPPISINYRTEIDKPSQ
B3: the “ELISA OD” value in experiment [1] was 1.35 OD.

B4: ADX_6077_F02 DG→DV mutant, alkylated (designed binder)
chain: GVSDVPRDLEVVAATPTSLLISWSDDYHAHRYYRITYGETGGNSPVQEFTVPGEHVTATISGLKPGVDYTITVYAVTYDVEKAATDWSISINYRTPC
modifications: C-terminal cysteine alkylated
notes: also called P1-055672
For B4, in experiment [2], the “Fold affinity (KD) difference vs alkylated parent” value is 7.8 fold, the Kd was found to be 43.5 nM, the koff is 0.00309 s⁻¹ and the kon is 71000 M⁻¹ s⁻¹. In addition, in experiment [3], the “Fold affinity (KD) difference vs alkylated parent” value stood at 7.8 fold, the Kd came to 30 nM, the koff is 0.0025 s⁻¹ and the kon came out at 85000 M⁻¹ s⁻¹. The “huGPC3 koff (mut/par)” value in experiment [4] came out at 7.9 fold. In addition, in experiment [5], the “muGPC3 koff (mut/par)” value is 7 fold.

B5: ADX_6077_F02 DG→GG mutant, alkylated (designed binder)
chain: GVSDVPRDLEVVAATPTSLLISWSDDYHAHRYYRITYGETGGNSPVQEFTVPGEHVTATISGLKPGVDYTITVYAVTYGGEKAATDWSISINYRTPC
modifications: C-terminal cysteine alkylated
notes: also called P1-055670
On to B5, for which, in experiment [4], the “huGPC3 koff (mut/par)” value was 14 fold. In addition, the “muGPC3 koff (mut/par)” value in experiment [5] came to 12 fold.

B6: ADX_4578_B06 (designed binder)
chain: MGVSDVPRDLEVVAATPTSLLISWFPDRYVYYITYGETGGNSPVQEFTVEGHKQTAYISGLKPGVDYTITVYAIYYYPDDFQGYPQPISINYRTEGSGS
In the case of B6, the “ELISA OD” value in experiment [1] came out at 0.17 OD.

B7: ADX_4606_F06 (designed binder)
chain: MGVSDVPRDLEVVAATPTSLLISWNSGHSGQYYRITYGETGGNSPVQEFTVPRYGYTATISGLKPGVDYTITVYAVAHSEASAPISINYRTEIDKPSQ
Consider B7, for which the “ELISA OD” value in experiment [1] was found to be 1.73 OD.

B8: 6077_F02-FITC (designed binder)
chain: MGVSDVPRDLEVVAATPTSLLISWSDDYHAHRYYRITYGETGGNSPVQEFTVPGEHVTATISGLKPGVDYTITVYAVTYDGEKAATDWSISINYRTPCHHHHHH
modifications: fluorescein-5-maleimide on the C-terminal cysteine
notes: also called FITC-labeled ADX_6077_F02
As for B8, in experiment [6], the Kd is 6.11 nM, the koff was determined as 0.000498 s⁻¹ and the kon came to 81500 M⁻¹ s⁻¹. In addition, in experiment [7], the Kd is 3.97 nM, the koff amounted to 0.000446 s⁻¹ and the kon amounted to 112000 M⁻¹ s⁻¹.

B9: 6077_F02.dPEG (designed binder)
chain: MGVSDVPRDLEVVAATPTSLLISWSDDYHAHRYYRITYGETGGNSPVQEFTVPGEHVTATISGLKPGVDYTITVYAVTYDGEKAATDWSISINYRTPCHHHHHH
modifications: dPEG, site and size not stated
notes: The PEGylation is not described; also called PEGylated anti-GPC3 adnectin (dPEG)
Consider B9, for which, in experiment [6], the Kd was 8.19 nM and 8.1 nM; the koff was 0.000602 s⁻¹ and 0.000607 s⁻¹; the kon is 73500 M⁻¹ s⁻¹ and 75000 M⁻¹ s⁻¹. In experiment [7], the Kd is 5.43 nM and 5.26 nM; the koff is 0.000559 s⁻¹ and 0.000557 s⁻¹; the kon is 103000 M⁻¹ s⁻¹ and 106000 M⁻¹ s⁻¹.

B10: 6077_F02-PEG3.4 (designed binder)
chain: MGVSDVPRDLEVVAATPTSLLISWSDDYHAHRYYRITYGETGGNSPVQEFTVPGEHVTATISGLKPGVDYTITVYAVTYDGEKAATDWSISINYRTPCHHHHHH
modifications: PEG3.4, site not stated
notes: The PEGylation is not described; also called PEGylated anti-GPC3 adnectin (PEG3.4)
Regarding B10, in experiment [6], the Kd worked out at 8.14 nM, the koff stood at 0.000584 s⁻¹ and the kon was found to be 71800 M⁻¹ s⁻¹. Further, in experiment [7], the Kd came to 5.12 nM, the koff turned out to be 0.000523 s⁻¹ and the kon amounted to 102000 M⁻¹ s⁻¹.

B11: ADX_4578_F03 (designed binder)
chain: MGVSDVPRDLEVVAATPTSLLISWHPPHPNIVSYHIYYGETGGNSPVQEFTVEGSKSTAKISGLKPGVDYTITVYAVAPEIEKYYQIWINYRTEGSGS
Take B11: the “ELISA OD” value in experiment [1] was found to be 0.6 OD.

Values taken from patent US20230312686A1 (Bristol-Myers Squibb, published 2023).
